Patent US20120225065A1 (published 2012)

Molecular target: Recombinant human IL-21 (human, UniProt Q9HBE4 25-162)
Test: cell-based or functional assay

Sequence of Recombinant human IL-21 (Q9HBE4 25-162 limits assumed): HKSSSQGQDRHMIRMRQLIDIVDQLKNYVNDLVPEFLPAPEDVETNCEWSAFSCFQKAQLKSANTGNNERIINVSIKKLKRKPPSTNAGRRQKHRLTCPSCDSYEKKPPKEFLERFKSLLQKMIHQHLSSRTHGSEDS

Binder	% IgD-low, CD138+ Plasma Cells at antagonist:ligand ratio 0.16:1 [%]	% IgD-low, CD138+ Plasma Cells at antagonist:ligand ratio 0.6:1 [%]	% IgD-low, CD138+ Plasma Cells at antagonist:ligand ratio 2.5:1 [%]	% IgD-low, CD138+ Plasma Cells at antagonist:ligand ratio 10:1 [%]	% IgD-low, CD138+ Plasma Cells at antagonist:ligand ratio 0.16:1 (actual 0.22:1) [%]	% IgD-low, CD138+ Plasma Cells at antagonist:ligand ratio 0.6:1 (actual 0.9:1) [%]	% IgD-low, CD138+ Plasma Cells at antagonist:ligand ratio 2.5:1 (actual 3.6:1) [%]	% IgD-low, CD138+ Plasma Cells at antagonist:ligand ratio 10:1 (actual 14.4:1) [%]
Heterodimeric IL-21 soluble receptor IL-21R/γc-Fc (Fc fusion, not shown: a dimerising Fc or GST) chain 1: not shown chain 2: LNTTILTPNGNEDTTADFFLTTMPTDSLSVSTLPLPEVQCFVFNVEYMNCTWNSSSEPQPTNLTLHYWYKNSDNDKVQKCSHYLFSEEITSGCQLQKKEIHLYQTFVVQLQDPREPRRQATQMLKLQNLVIPWAPENLTLHKLSESQLELNWNNRFLNHCLEHLVQYRTDWDHSWTEQSVDYRHKFSLPSVDGQKRYTFRVRSRFNPLCGSAQHWSEWSHPIHWGSNTSKENPFLFALEA	66.7	54.2	41.7	23.4				
Human anti-human IL-21 monoclonal antibody clone 366.552.11 (antibody, V domains shown) VH: QVQLQESGPGLVKPSETLSLTCTVSGGSISSDFWGWIRQPPGKGLEWIGYISSRGSTNYNPSLKRRVTISVDTSRNQFSLKLSSVTAADTAVYYCARSAGVTDFDFWGQGTLVTVSS VL: DIQMTQSPSSVSASVGDRVTITCRASQGISSWLAWYQHKPGKAPKLLIYVASSLQSGVPSRFSGSGSGTDFTLTISSLQPEDFATYYCQQANSFPLTFGGGTKVEIK					50.3	44.8	26.4	15.4
Human anti-human IL-21 monoclonal antibody clone 366.328.10 (antibody, V domains shown) VH: EVQLVESGGGLVKPGGSLRLSCAASGFIFSSYSMNWVRQAPGKGLEWVSSITSGSYYIHYADSVKGRFTISRDNAKNSLYLQMNSLRAEDTAVYYCVRERGWGYYGMDVWGQGTTVTVSS VL: AIQLTQSPSSLSASVGDRVTITCRASQDIDSALAWYQQKPGKAPKILIHDASSLESGVPSRFSGSGSGTDFTLTISSLQPEDFATYYCQQFNSYPYTFGQGTKLEIK	52.1	41.4	20.2	15.4				
